± gives the uncertainty stated by the source.

B1: POU domain, class 4, transcription factor 1, residues 266 to 347; numbered along this chain, Q01851 (parent)
chain: RELEAFAERFKQRRIKLGVTQADVGSALANLKIPGVGSLSQSTICRFESLTLSHNNMIALKPILQAWLEEAEGAQREKMNKP

In this data set the parent is B1. In words: abundance fitness (aPCA) (normalised: wild type 0, dead -1); higher = more abundant; growth selection in yeast, the domain comes from the species named. Conditions: Homo sapiens.
As to RELEAFAERFKQRRIKLGVTQADVGSALGNLKIPGVGSLSQSTICRFESLTLSHNNMIALKPILQAWLEEAEGAQREKMNKP [A29G], the abundance fitness was 0.132 ± 0.1.
To RELEAFAERFKQRRIKLGVTQADVGSALINLKIPGVGSLSQSTICRFESLTLSHNNMIALKPILQAWLEEAEGAQREKMNKP [A29I] belongs -0.019 ± 0.13; to RELEAFAERFKQRRIKLGVTQADVGSALCNLKIPGVGSLSQSTICRFESLTLSHNNMIALKPILQAWLEEAEGAQREKMNKP [A29C], 0.128 ± 0.36.
To RELEAFAERFKQRRIKLGVTQADVGSALVNLKIPGVGSLSQSTICRFESLTLSHNNMIALKPILQAWLEEAEGAQREKMNKP [A29V] belongs 0.088 ± 0.35; to RELEAFAERFKQRRIKLGVTQADVGSALLNLKIPGVGSLSQSTICRFESLTLSHNNMIALKPILQAWLEEAEGAQREKMNKP [A29L], -0.092 ± 0.13.
The figure for RELEAFAERFKQRRIKLGVTQADVGSALRNLKIPGVGSLSQSTICRFESLTLSHNNMIALKPILQAWLEEAEGAQREKMNKP [A29R] is 0.083 ± 0.087.
For RELEAFAERFKQRRIKLGVTQADVGSALENLKIPGVGSLSQSTICRFESLTLSHNNMIALKPILQAWLEEAEGAQREKMNKP [A29E], the abundance fitness came out at 0.036 ± 0.11.
To RELEAFAERFKQRRIKLGVTQADVGSALKNLKIPGVGSLSQSTICRFESLTLSHNNMIALKPILQAWLEEAEGAQREKMNKP [A29K] belongs 0.02 ± 0.14.
To RELEAFAERFKQRRIKLGVTQADVGSALWNLKIPGVGSLSQSTICRFESLTLSHNNMIALKPILQAWLEEAEGAQREKMNKP [A29W] belongs -0.605 ± 0.5; to RELEAFAERFKQRRIKLGVTQADVGSALPNLKIPGVGSLSQSTICRFESLTLSHNNMIALKPILQAWLEEAEGAQREKMNKP [A29P], -0.184 ± 0.16; to RELEAFAERFKQRRIKLGVTQADVGSAAANLKIPGVGSLSQSTICRFESLTLSHNNMIALKPILQAWLEEAEGAQREKMNKP [L28A], -0.422 ± 0.032.
The figure for RELEAFAERFKQRRIKLGVTQADVGSASANLKIPGVGSLSQSTICRFESLTLSHNNMIALKPILQAWLEEAEGAQREKMNKP [L28S] is -0.639 ± 0.043; for RELEAFAERFKQRRIKLGVTQADVGSAFANLKIPGVGSLSQSTICRFESLTLSHNNMIALKPILQAWLEEAEGAQREKMNKP [L28F] it is -0.129 ± 0.045; for RELEAFAERFKQRRIKLGVTQADVGSAQANLKIPGVGSLSQSTICRFESLTLSHNNMIALKPILQAWLEEAEGAQREKMNKP [L28Q] it is -0.628 ± 0.052.
Regarding RELEAFAERFKQRRIKLGVTQADVGSAHANLKIPGVGSLSQSTICRFESLTLSHNNMIALKPILQAWLEEAEGAQREKMNKP [L28H], the abundance fitness was -0.332 ± 0.061.
In the case of RELEAFAERFKQRRIKLGVTQADVGSATANLKIPGVGSLSQSTICRFESLTLSHNNMIALKPILQAWLEEAEGAQREKMNKP [L28T], the abundance fitness was -0.312 ± 0.042.
The figure for RELEAFAERFKQRRIKLGVTQADVGSAEANLKIPGVGSLSQSTICRFESLTLSHNNMIALKPILQAWLEEAEGAQREKMNKP [L28E] is -0.782 ± 0.048; for RELEAFAERFKQRRIKLGVTQADVGSAVANLKIPGVGSLSQSTICRFESLTLSHNNMIALKPILQAWLEEAEGAQREKMNKP [L28V] it is -0.074 ± 0.025; for RELEAFAERFKQRRIKLGVTQADVGSAKANLKIPGVGSLSQSTICRFESLTLSHNNMIALKPILQAWLEEAEGAQREKMNKP [L28K] it is -0.601 ± 0.047.
The figure for RELEAFAERFKQRRIKLGVTQADVGSAYANLKIPGVGSLSQSTICRFESLTLSHNNMIALKPILQAWLEEAEGAQREKMNKP [L28Y] is -0.439 ± 0.066.
Regarding RELEAFAERFKQRRIKLGVTQADVGSAWANLKIPGVGSLSQSTICRFESLTLSHNNMIALKPILQAWLEEAEGAQREKMNKP [L28W], the abundance fitness was -0.555 ± 0.033.
RELEAFAERFKQRRIKLGVTQADVGSACANLKIPGVGSLSQSTICRFESLTLSHNNMIALKPILQAWLEEAEGAQREKMNKP [L28C]: the abundance fitness is -0.042 ± 0.039.
On to RELEAFAERFKQRRIKLGVTQADVGSANANLKIPGVGSLSQSTICRFESLTLSHNNMIALKPILQAWLEEAEGAQREKMNKP [L28N], for which the abundance fitness was -0.459 ± 0.071.
The figure for RELEAFAERFKQRRIKLGVTQADVGSADANLKIPGVGSLSQSTICRFESLTLSHNNMIALKPILQAWLEEAEGAQREKMNKP [L28D] is -0.624 ± 0.065; for RELEAFAERFKQRRIKLGVTQADVGSAMANLKIPGVGSLSQSTICRFESLTLSHNNMIALKPILQAWLEEAEGAQREKMNKP [L28M] it is -0.09 ± 0.037; for RELEAFAERFKQRRIKLGVTQADVGSALAILKIPGVGSLSQSTICRFESLTLSHNNMIALKPILQAWLEEAEGAQREKMNKP [N30I] it is 0.054 ± 0.13.
The figure for RELEAFAERFKQRRIKLGVTQADVGSALAKLKIPGVGSLSQSTICRFESLTLSHNNMIALKPILQAWLEEAEGAQREKMNKP [N30K] is 0.113 ± 0.088; for RELEAFAERFKQRRIKLGVTQADVGSALACLKIPGVGSLSQSTICRFESLTLSHNNMIALKPILQAWLEEAEGAQREKMNKP [N30C] it is -0.337 ± 0.17.
To RELEAFAERFKQRRIKLGVTQADVGSALAFLKIPGVGSLSQSTICRFESLTLSHNNMIALKPILQAWLEEAEGAQREKMNKP [N30F] belongs 0.037 ± 0.13; to RELEAFAERFKQRRIKLGVTQADVGSALAHLKIPGVGSLSQSTICRFESLTLSHNNMIALKPILQAWLEEAEGAQREKMNKP [N30H], 0.054 ± 0.15.
With RELEAFAERFKQRRIKLGVTQADVGSALAALKIPGVGSLSQSTICRFESLTLSHNNMIALKPILQAWLEEAEGAQREKMNKP [N30A], the abundance fitness worked out at 0.028 ± 0.059.
To RELEAFAERFKQRRIKLGVTQADVGSALAELKIPGVGSLSQSTICRFESLTLSHNNMIALKPILQAWLEEAEGAQREKMNKP [N30E] belongs -0.043 ± 0.072.
The figure for RELEAFAERFKQRRIKLGVTQADVGSALAGLKIPGVGSLSQSTICRFESLTLSHNNMIALKPILQAWLEEAEGAQREKMNKP [N30G] is -0.009 ± 0.041; for RELEAFAERFKQRRIKLGVTQADVGSYLANLKIPGVGSLSQSTICRFESLTLSHNNMIALKPILQAWLEEAEGAQREKMNKP [A27Y] it is -0.041 ± 0.19.

The record behind these values is the Human Domainome abundance scans (Beltran et al. 2025).
